# Assay results as given in patent publication US7598032B2, “Thermostable DNA polymerases incorporating nucleoside triphosphates labeled with fluorescent dyes” (Roche Molecular Systems, priority 1997, dated 2009).
# B1: G46D F667Y E681K Taq: thermostable Taq DNA polymerase with G46D, F667Y and E681K mutations, encoded by plasmid pLK113 (protein, UniProt P19821 1-832, looked up, variant G46D F667Y E681K)
# DNA polymerase I, thermostable: MRGMLPLFEPKGRVLLVDGHHLAYRTFHALKGLTTSRGEPVQAVYDFAKSLLKALKEDGDAVIVVFDAKAPSFRHEAYGGYKAGRAPTPEDFPRQLALIKELVDLLGLARLEVPGYEADDVLASLAKKAEKEGYEVRILTADKDLYQLLSDRIHVLHPEGYLITPAWLWEKYGLRPDQWADYRALTGDESDNLPGVKGIGEKTARKLLEEWGSLEALLKNLDRLKPAIREKILAHMDDLKLSWDLAKVRTDLPLEVDFAKRREPDRERLRAFLERLEFGSLLHEFGLLESPKALEEAPWPPPEGAFVGFVLSRKEPMWADLLALAAARGGRVHRAPEPYKALRDLKEARGLLAKDLSVLALREGLGLPPGDDPMLLAYLLDPSNTTPEGVARRYGGEWTEEAGERAALSERLFANLWGRLEGEERLLWLYREVERPLSAVLAHMEATGVRLDVAYLRALSLEVAEEIARLEAEVFRLAGHPFNLNSRDQLERVLFDELGLPAIGKTEKTGKRSTSAAVLEALREAHPIVEKILQYRELTKLKSTYIDPLPDLIHPRTGRLHTRFNQTATATGRLSSSDPNLQNIPVRTPLGQRIRRAFIAEEGWLLVALDYSQIELRVLAHLSGDENLIRVFQEGRDIHTETASWMFGVPREAVDPLMRRAAKTINYGVLYGMSAHRLSQKLAIPYEEAQAFIERYFQSFPKVRAWIEKTLEEGRRRGYVETLFGRRRYVPDLEARVKSVREAAERMAFNMPVQGTAADLMKLAMVKLFPRLEEMGARMLLQVHDELVLEAPKERAEAVARLAKEVMEGVYPLAVPLEVEVGIGEDWLSAKE
# Tested on: primer DG48 annealed to M13 mp18 template
# Assay: limiting template, primer extension competition assay (ddNTP incorporation assay)
# Format: biochemical
# Settings: ratio of concentrations for 50% inhibition by Zowie-ddCTP vs. ddCTP
# Experimental: The ability of the enzymes of this invention to efficiently incorporate nucleotides labeled with fluorescein family dyes is measured by ddNTP incorporation assays. One such assay is a primer extension competition assay conducted under conditions of limiting template. In this assay, a primer DG48 (5′-[…]), (SEQ ID NO: 11), bound to M13 mp18 template (Innis et al., 1988, Proc. Natl. Acad. Sci. USA 85:9436) is extended in the presence of [α-^33P]dCTP and excess enzyme with various levels of a fluorescently labeled ddNTP, Zowie-ddCTP. Because the incorporation of a ddCTP residue terminates the extension reaction, the more readily a DNA polymerase incorporates a ddCTP into an extended primer, the less [α-^33P]dCTP can be incorporated. Thus, as the efficiency of fluorescently labeled ddCTP incorporation increases, the extent of inhibition of DNA synthesis is increased. The reactions were also performed with various levels of an unlabeled ddCTP. […]
# The relative abilities of G46D F667Y Taq, G46D F667Y E681K Taq and F730Y Tma30 DNA polymerases to incorporate a fluorescein dye family-labeled ddCTP were compared by use of a limiting template, primer extension competition assay. […] In this competition assay, because the incorporation of a ddCTP terminates the extension reaction, the more readily the polymerase incorporates a ddCTP into an extended primer, the less [α-^33P]dCTP can be incorporated. […]
molecule,measurement,value
B1,Zowie-ddCTP/ddCTP (ratio of concentrations for 50% inhibition),1.2
